According to PMC4742278, “BS69/ZMYND11 C-Terminal Domains Bind and Inhibit EBNA2” (PLoS Pathogens, 2016):

B1: BS69CC-MYND: residues 440–562 of BS69/ZMYND11, tandem coiled-coil-MYND domains (protein, UniProt Q15326 440-562, looked up, fragment)
chain: TKKLSASSPRMLHRSTQTTNDGVCQSMCHDKYTKIFNDFKDRMKSDHKRETERVVREALEKLRSEMEEEKRQAVNKAVANMQGEMDRKCKQVKEKCKEEFVEEIKKLATQHKQLISQTKKKQW
modifications: coiled-coil-MYND domain FLAG tag
notes: residues 440–562 of BS69/ZMYND11, tandem coiled-coil-MYND domains
B2: BS69: emerging tumor suppressor, Adenovirus protein E1A and EBNA2-interacting protein (protein, UniProt Q15326 1-602, looked up)
Zinc finger MYND …: MARLTKRRQADTKAIQHLWAAIEIIRNQKQIANIDRITKYMSRVHGMHPKETTRQLSLAVKDGLIVETLTVGCKGSKAGIEQEGYWLPGDEIDWETENHDWYCFECHLPGEVLICDLCFRVYHSKCLSDEFRLRDSSSPWQCPVCRSIKKKNTNKQEMGTYLRFIVSRMKERAIDLNKKGKDNKHPMYRRLVHSAVDVPTIQEKVNEGKYRSYEEFKADAQLLLHNTVIFYGADSEQADIARMLYKDTCHELDELQLCKNCFYLSNARPDNWFCYPCIPNHELVWAKMKGFGFWPAKVMQKEDNQVDVRFFGHHHQRAWIPSENIQDITVNIHRLHVKRSMGWKKACDELELHQRFLREGRFWKSKNEDRGEEEAESSISSTSNEQLKVTQEPRAKKGRRNQSVEPKKEEPEPETEAVSSSQEIPTMPQPIEKVSVSTQTKKLSASSPRMLHRSTQTTNDGVCQSMCHDKYTKIFNDFKDRMKSDHKRETERVVREALEKLRSEMEEEKRQAVNKAVANMQGEMDRKCKQVKEKCKEEFVEEIKKLATQHKQLISQTKKKQWCYNCEEEAMYHCCWNTSYCSIKCQQEHWHAEHKRTCRRKR

Experiments:
[1] = tested on: LMP1-Luc reporter, EBNA2-mediated transcriptional activation; assay: LMP1-Luc reporter assay (EBNA2-mediated transcription) in BJAB cells; assay type: cell-based, Epstein-Barr virus; settings: 10 μg EBNA2 vector, 5 μg flag-BS69CC-MYND plasmid, 5 μg reporter
Description: (§1) Cell culture and reporter gene assays for EBNA2-mediated transcription activation
(§2) The BS69CC-MYND dual domain, wild-type or the Q546A mutant, were inserted into a pCBS/FLAG mammalian expression vector [54], in which the BS69 fragments are preceded by a FLAG-tag. In the case of the Q546A/W550A BS69CC-MYND expression plasmid, the flanking DNA fragment was subcloned into the pSG5-Flag vector [55]. The EBNA2 expression vector harboring PXLXP1 or PXLXP2 mutations was generated by carrying out the PCR-based mutagenesis protocol provided by the manufactory (Stratagene). In each case, the codons of two prolines were replaced with the codons of alanine simultaneously. For EBNA2-dependent transcription reporter assays, 10 μg of the expression vector of EBNA2 (E2), 5 μg flag-BS69CC- MYND wild type, or Q546A plasmid, and 5 μg LMP1-Luc or Cp-Luc reporter plasmid, and 1 μg CMV-βGal control plasmid were co-transfected into BJAB cells following the protocol as described previously. For the parallel control, 10 μg EBNA1 expression plasmid and 5 μg OriP-Luc reporter plasmid were used instead. Luciferase and β-Gal activities were assayed by Orion L (Berthold). A DNA fragment encoding residues 375–465 of EBNA2 from EBV W91 strain [49] containing CR7 and CR8 of EBNA2 were inserted into pCD-Gal4(1–147) vector to generate pCD-Gal4-EBNA2(375–465), which encodes a GAL4-EBNA2 fusion protein. […]

[2] = tested on: LMP1-DNA (LMP1 promoter); assay: ChIP at LMP1 promoter DNA in transfected BJAB cells; assay type: cell-based, Epstein-Barr virus; settings: M2 ChIP
Description: To determine whether BS69CC-MYND is able to associate with EBNA2 target promoters through protein-protein interactions, we performed Chromatin Immunoprecipitation (ChIP) assays using BJAB cells, in which flag-tagged wild-type, Q546A, or […] BS69CC-MYND was co-transfected with or without EBNA2 expression vector and a reporter plasmid containing the LMP1 promoter, LMP1-Luc. […] On the other hand, an EBNA2 ChIP brought down ~13% of LMP1-DNA, consistent with the fact that LMP1 is one of the target sites of EBNA2 [35, 36].
5x10^4/per 100 μl primary B cells were cultured in RPMI 1640 supplemented with 15% fetal calf serum (FCS), 2 mM L-glutamine, and penicillin/streptomycin, and aliquoted into a 96-well plate. […] Cells were collected at 0, 1, 3, 5, and 7 days of post-infection (dpi) and BS69 mRNA expression in virus or mock -infected B cells were determined as the relative expression levels versus GAPDH by quantitative reverse transcription real time PCR (qRT-PCR). […] The amount of ChIPed DNA was quantified by real time PCR and represented as % of input DNA. […]
The transfection-mediated co-immunoprecipitation (Co-IP) assay was employed to identify the physical interaction of EBNA2 with BS69CC-MYND using EBV-negative B lymphoma cells (BJAB). […] The proteins were detected and visualized using an ECL detection kit (Millipore). […]

[3] = tested on: EBNA2; assay: Co-immunoprecipitation of EBNA2 with flag-BS69CC-MYND in BJAB cells; assay type: cell-based, Epstein-Barr virus; settings: anti-flag M2 IP, Western blot
Description: To address whether the BS69 C-terminal domain, if expressed, interacts with EBNA2 in vivo, we ectopically co-expressed flag-tagged wild-type, Q546A, or Q546A/W550A BS69CC-MYND with EBNA2 in BJAB cells, followed by immunoprecipitation using anti-flag M2-conjugated sepharose and Western blotting with antibodies against EBNA2 and M2, respectively. […] In addition, the immunofluorescence (IF) image pointed to a reduction of large amount of BS69 expression in EBV infected B cells at 5 dpi, confirming the barely low expression levels of BS69 shown in Fig 4B.
Co-immunoprecipitation, chromatin immunoprecipitation (ChIP), and western blot analyses
The transfection-mediated co-immunoprecipitation (Co-IP) assay was employed to identify the physical interaction of EBNA2 with BS69CC-MYND using EBV-negative B lymphoma cells (BJAB). Cells were co-transfected with the expression plasmids of EBNA2 (E2) and flag- BS69CC-MYND wild type, Q546A mutant (Q546A), or Q546A/W550A mutant (Q546A/W550A) and subjected to IP analysis using M2-conjugated sepharose (Sigma). […] The proteins were detected and visualized using an ECL detection kit (Millipore). […] The protein levels of endogenous BS69 in the obtained cell lines were determined by Western blot using BS69 antibody (Santa Cruz biotechnology). […] The proteins were detected and visualized using an ECL detection kit (Millipore).

[4] = tested on: G5-TK-Luc reporter, Gal4-EBNA2 transcriptional activation; assay: G5-TK-Luc reporter assay with Gal4-EBNA2 in HeLa cells; assay type: cell-based; settings: 10 ng BS69CC-MYND expression vector, relative to no Gal4 activator (set to 1), means of minimum 3 independent experiments each in triplicates
Description: as §1
The BS69CC-MYND dual domain, wild-type or the Q546A mutant, were inserted into a pCBS/FLAG mammalian expression vector [54], in which the BS69 fragments are preceded by a FLAG-tag. In the case of the Q546A/W550A BS69CC-MYND expression plasmid, the flanking DNA fragment was subcloned into the pSG5-Flag vector [55]. The EBNA2 expression vector harboring PXLXP1 or PXLXP2 mutations was generated by carrying out the PCR-based mutagenesis protocol provided by the manufactory (Stratagene). In each case, the codons of two prolines were replaced with the codons of alanine simultaneously. […]
Supplementary file ppat.1005414.s003.tif: S3 Fig In vivo transcription assays of G5-TK-Luc reporter gene. (A) The expression of Flag-tagged wild-type or Q546A BS69CC-MYND in HeLa cells was analyzed by Western blotting using anti-flag M2 monoclonal antibody. […] (B) Relative transcription activation by GAL4 DBD, Gal4-EBNA2 and Gal4-VP16 was analyzed in transfected HeLa cells in the absence or presence of 10 ng expression vector for wild-type BS69CC-MYND or its Q546A mutant. […]

[5] = tested on: Cp-Luc reporter, EBNA2-mediated transcriptional activation; assay: Cp-Luc reporter assay (EBNA2-mediated transcription) in BJAB cells; assay type: cell-based, Epstein-Barr virus; settings: 10 μg EBNA2 vector, 5 μg flag-BS69CC-MYND plasmid, 5 μg reporter
Description: as §1, §2

[6] = tested on: cancer cell growth; settings: in vitro and in vivo; cited from earlier work
Description: BS69 (ZMYND11) is an emerging tumor suppressor [19–21] that was originally identified as the Adenovirus protein E1A and EBNA2-interacting protein [22, 23]. […] BS69 contains, in addition to a C-terminal MYND (MYeloid translocation protein 8, Nervy and DEAF-1) domain, an N-terminal Plant Homo Domain (PHD) zinc finger, a Bromo domain and a PWWP domain.

[7] = tested on: EBNA2; assay: Confocal immunofluorescence of EBNA2 and BS69 in EBV-infected B cells; assay type: cell-based, Epstein-Barr virus; settings: EBV infected B cells at 1 and 3 dpi
Protocol: 5x10^4/per 100 μl primary B cells were cultured in RPMI 1640 supplemented with 15% fetal calf serum (FCS), 2 mM L-glutamine, and penicillin/streptomycin, and aliquoted into a 96-well plate. 100 μL previously purified EBV [52] or PBS (mock infection) was utilized as the inoculum. Cells were collected at 0, 1, 3, 5, and 7 days of post-infection (dpi) and BS69 mRNA expression in virus or mock -infected B cells were determined as the relative expression levels versus GAPDH by quantitative reverse transcription real time PCR (qRT-PCR). For Western blot analysis, a total of 5x10^5 B cells with EBV infection were collected at 0, 1, 4, and 7 dpi, respectively. The primers for BS69 are […] (F) and […] (R), whereas the primers for GAPDH internal control are […] (F) and […] (R). The primers for chromatin immunoprecipitati on assays of the LMP1 promoter and GAPDH promoter control have been described previously. The amount of ChIPed DNA was quantified by real time PCR and represented as % of input DNA. For Immunofluorescence analysis (IFA), cells were fixed in 2% paraformaldehyde (Sigma) and subjected to an immunostaining protocol using antibodies for BS69 (Santa Cruz), and EBNA2 (Santa Cruz). […]

[8] = tested on: EBNA1-mediated transcriptional activation of OriP-Luc reporter; assay: OriP-Luc reporter assay (EBNA1-mediated transcription); assay type: cell-based, Epstein-Barr virus; settings: 10 μg EBNA1 expression plasmid, 5 μg OriP-Luc reporter
Description: as §1, §2

Row | Molecule | relative transcriptional activation by EBNA2 in presence of BS69CC-MYND, LMP1-Luc [1] | ChIPed LMP1-DNA ([2]; absence of EBNA2 (similar to IgG negative control)) | ChIPed LMP1-DNA ([2]; presence of EBNA2, % of input DNA) | EBNA2 co-precipitation [3] | activation of G5-TK-Luc by Gal4-EBNA2 in presence of BS69CC-MYND [4] | relative transcriptional activation by EBNA2 in presence of BS69CC-MYND, Cp-Luc [5] | effect of BS69 overexpression on cancer cell growth [6] | colocalization of EBNA2 and BS69 [7] | suppression of EBNA1-mediated transcriptional activation of OriP-Luc [8]
1 | B1 | ≤ 2 fold | 7–8 % over input DNA | ~ 17% | EBNA2 co-precipitates with wild-type flag-tagged BS69CC-MYND | less than 4 fold | ≤ 2 fold | – | – | –
2 | B2 | – | – | – | – | – | – | suppresses cancer cell growth both in vitro and in vivo | colocalization of EBNA2 and BS69 appeared | failed to suppress
